Publication PMC9482650, “Quantitative fragmentomics allow affinity mapping of interactomes” (Nature Communications, 2022)
Values belong to the binder of their own block, whether it stands above or below them.

Legend:
Assay in all cases: holdup assay
Set-up in all cases: key: below the threshold = too weak to quantify, mostly under pKd 3.1 to 4
AHNAK1, Q09666 = target: AHNAK1, Q09666
DFNB31_3, Q9P202 = target: T1, DFNB31_3, Q9P202
T1 sequence (Q9P202 811-907, limits assumed, looked up): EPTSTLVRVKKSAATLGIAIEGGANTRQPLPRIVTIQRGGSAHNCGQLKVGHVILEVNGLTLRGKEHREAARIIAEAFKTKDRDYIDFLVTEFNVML

DLG1_1, Q12959 = target: DLG1_1, Q12959
DLG2_2, Q15700 = target: DLG2_2, Q15700
Sequence of DLG2_2, Q15700 (Q15700 189-283): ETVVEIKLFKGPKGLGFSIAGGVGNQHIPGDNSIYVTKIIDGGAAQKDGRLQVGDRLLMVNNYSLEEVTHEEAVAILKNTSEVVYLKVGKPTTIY

DLG3_1, Q92796 = target: T2, DLG3_1, Q92796
T2 sequence (Q92796 125-227, limits assumed, looked up): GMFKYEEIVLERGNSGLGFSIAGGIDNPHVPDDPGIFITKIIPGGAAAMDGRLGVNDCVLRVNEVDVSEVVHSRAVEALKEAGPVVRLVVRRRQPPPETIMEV

DLG4_2, P78352 = target: DLG4_2, P78352
Sequence of DLG4_2, P78352 (P78352 155-259): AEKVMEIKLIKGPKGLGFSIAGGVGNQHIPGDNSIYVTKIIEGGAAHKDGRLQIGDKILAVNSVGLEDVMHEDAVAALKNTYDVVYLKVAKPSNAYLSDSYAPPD

GRID2IP_1, A4D2P6 = target: GRID2IP_1, A4D2P6
Sequence of GRID2IP_1, A4D2P6 (A4D2P6 1-87): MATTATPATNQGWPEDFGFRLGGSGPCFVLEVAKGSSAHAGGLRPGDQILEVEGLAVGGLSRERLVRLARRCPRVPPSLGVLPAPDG

GRIP1_4, Q9Y3R0 = target: T3, GRIP1_4, Q9Y3R0
T3 sequence (Q9Y3R0 467-571, limits assumed, looked up): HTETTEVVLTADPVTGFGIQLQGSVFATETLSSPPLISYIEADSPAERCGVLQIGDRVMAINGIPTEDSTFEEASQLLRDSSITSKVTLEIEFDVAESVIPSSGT

GRIP1_7, Q9Y3R0 = target: T4, GRIP1_7, Q9Y3R0
T4 sequence (Q9Y3R0 999-1096, limits assumed, looked up): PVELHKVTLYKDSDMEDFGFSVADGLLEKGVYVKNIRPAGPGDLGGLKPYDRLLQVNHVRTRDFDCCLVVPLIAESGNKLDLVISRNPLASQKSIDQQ

HTRA1, Q92743 = target: HTRA1, Q92743
Sequence of HTRA1, Q92743 (Q92743 360-477): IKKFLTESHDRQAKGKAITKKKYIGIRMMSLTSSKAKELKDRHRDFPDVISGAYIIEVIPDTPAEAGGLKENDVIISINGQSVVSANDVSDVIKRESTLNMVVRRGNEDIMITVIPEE

Inadl_1, Q8NI35 = target: Inadl_1, Q8NI35
Sequence of Inadl_1, Q8NI35 (Q8NI35 113-229): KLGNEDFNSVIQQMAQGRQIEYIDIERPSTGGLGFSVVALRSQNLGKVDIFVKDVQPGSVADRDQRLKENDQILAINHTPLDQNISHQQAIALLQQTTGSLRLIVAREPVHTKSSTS

LAP2, Q96RT1 = target: LAP2, Q96RT1
Sequence of LAP2, Q96RT1 (Q96RT1 other isoform, or with tags, fused parts or gaps): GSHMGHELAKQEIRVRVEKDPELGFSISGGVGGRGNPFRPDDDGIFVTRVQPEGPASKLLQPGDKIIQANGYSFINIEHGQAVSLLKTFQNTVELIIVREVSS

LNX2_2, Q8N448 = target: T5, LNX2_2, Q8N448
T5 sequence (Q8N448 334-432, limits assumed, looked up): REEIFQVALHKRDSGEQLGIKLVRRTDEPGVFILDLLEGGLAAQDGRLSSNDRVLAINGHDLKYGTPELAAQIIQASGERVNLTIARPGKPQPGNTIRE

LRRC7, Q96NW7 = target: T6, LRRC7, Q96NW7
T6 sequence (Q96NW7 1440-1537, limits assumed, looked up): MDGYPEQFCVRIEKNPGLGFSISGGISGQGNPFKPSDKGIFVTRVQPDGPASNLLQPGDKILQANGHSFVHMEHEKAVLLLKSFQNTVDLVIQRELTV

MAGI2_3, Q86UL8 = target: MAGI2_3, Q86UL8
Sequence of MAGI2_3, Q86UL8 (Q86UL8 600-682): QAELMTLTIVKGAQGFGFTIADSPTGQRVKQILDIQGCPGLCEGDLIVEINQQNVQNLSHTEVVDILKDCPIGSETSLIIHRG

MAGI2_6, Q86UL8 = target: MAGI2_6, Q86UL8
Sequence of MAGI2_6, Q86UL8 (Q86UL8 1141-1229): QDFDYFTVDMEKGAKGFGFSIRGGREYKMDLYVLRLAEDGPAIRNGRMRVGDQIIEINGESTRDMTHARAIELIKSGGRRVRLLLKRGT

MPDZ_10, O75970 = target: T7, MPDZ_10, O75970
T7 sequence (O75970 1624-1722, limits assumed, looked up): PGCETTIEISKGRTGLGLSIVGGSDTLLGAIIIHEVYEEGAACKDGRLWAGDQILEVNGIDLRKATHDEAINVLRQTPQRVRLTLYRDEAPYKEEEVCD

NHERF4_2, Q86UT5 = target: NHERF4_2, Q86UT5
Sequence of NHERF4_2, Q86UT5 (Q86UT5 220-308): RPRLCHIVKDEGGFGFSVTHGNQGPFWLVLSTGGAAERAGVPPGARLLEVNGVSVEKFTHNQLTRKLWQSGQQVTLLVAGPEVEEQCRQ

NOS1, P29475 = target: NOS1, P29475
Sequence of NOS1, P29475 (P29475 9-101): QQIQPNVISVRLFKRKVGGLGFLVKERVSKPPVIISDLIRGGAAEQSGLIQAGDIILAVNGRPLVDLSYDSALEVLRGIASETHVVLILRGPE

PARD3B_1, Q8TEW8 = target: T8, PARD3B_1, Q8TEW8
T8 sequence (Q8TEW8 196-299, limits assumed, looked up): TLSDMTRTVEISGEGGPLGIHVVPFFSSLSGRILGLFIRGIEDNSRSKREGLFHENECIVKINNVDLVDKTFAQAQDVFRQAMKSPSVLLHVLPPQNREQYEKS

PCLO, Q9Y6V0 = target: T9, PCLO, Q9Y6V0
T9 sequence (Q9Y6V0 4491-4600, limits assumed, looked up): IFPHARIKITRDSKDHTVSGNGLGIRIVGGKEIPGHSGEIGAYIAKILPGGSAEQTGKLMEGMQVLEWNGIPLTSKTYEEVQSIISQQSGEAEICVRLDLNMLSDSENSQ

PDLIM1, O00151 = target: PDLIM1, O00151
Sequence of PDLIM1, O00151 (O00151 1-87): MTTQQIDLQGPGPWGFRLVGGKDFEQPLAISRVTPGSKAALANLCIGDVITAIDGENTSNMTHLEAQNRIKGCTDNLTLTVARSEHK

SCRIB_2, Q14160 = target: SCRIB_2, Q14160
Sequence of SCRIB_2, Q14160 (Q14160 857-960): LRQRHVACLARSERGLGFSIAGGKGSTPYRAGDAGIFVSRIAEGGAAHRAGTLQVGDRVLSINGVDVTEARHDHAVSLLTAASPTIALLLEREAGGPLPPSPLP

SCRIB_3, Q14160 = target: SCRIB_3, Q14160
Sequence of SCRIB_3, Q14160 (Q14160 999-1103): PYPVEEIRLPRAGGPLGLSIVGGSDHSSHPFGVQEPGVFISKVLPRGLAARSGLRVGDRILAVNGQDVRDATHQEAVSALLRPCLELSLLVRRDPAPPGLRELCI

SIPA1L2, Q9P2F8 = target: T10, SIPA1L2, Q9P2F8
T10 sequence (Q9P2F8 945-1036, limits assumed, looked up): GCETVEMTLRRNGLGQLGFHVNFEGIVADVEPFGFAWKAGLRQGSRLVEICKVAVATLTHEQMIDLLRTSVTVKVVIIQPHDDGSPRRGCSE

TIAM2, Q8IVF5 = target: T11, TIAM2, Q8IVF5
T11 sequence (Q8IVF5 885-986, limits assumed, looked up): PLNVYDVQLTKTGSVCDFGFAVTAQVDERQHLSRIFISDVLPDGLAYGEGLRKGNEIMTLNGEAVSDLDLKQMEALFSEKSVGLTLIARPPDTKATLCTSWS

TJP1_2, Q07157 = target: TJP1_2, Q07157
Sequence of TJP1_2, Q07157 (Q07157 181-274): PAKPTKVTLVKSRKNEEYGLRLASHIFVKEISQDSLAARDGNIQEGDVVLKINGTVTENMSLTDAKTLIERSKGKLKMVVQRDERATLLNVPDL

[1] = plain residues with an end cap or a label only (N-terminal biotin on a linker: ado-ado)
[2] = modified: acetyl on K at position -1 from the C-terminal residue

Sequence of AHNAK1, Q09666 (Q09666 4-100): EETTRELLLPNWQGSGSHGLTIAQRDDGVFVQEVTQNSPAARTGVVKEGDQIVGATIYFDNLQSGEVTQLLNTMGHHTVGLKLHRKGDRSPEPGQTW

pKd (AHNAK1, Q09666; [1]): below the threshold
pKd (DFNB31_3, Q9P202; [1]): 3.96
pKd (DLG1_1, Q12959; [1]): below the threshold
pKd (DLG2_2, Q15700; [1]): below the threshold
pKd (DLG3_1, Q92796; [1]): below the threshold
pKd (DLG4_2, P78352; [1]): below the threshold
pKd (GRID2IP_1, A4D2P6; [1]): below the threshold
pKd (GRIP1_4, Q9Y3R0; [1]): below the threshold
pKd (GRIP1_7, Q9Y3R0; [1]): below the threshold
pKd (HTRA1, Q92743; [1]): 3.5
pKd (Inadl_1, Q8NI35; [1]): below the threshold
pKd (LAP2, Q96RT1; [1]): below the threshold
pKd (LNX2_2, Q8N448; [1]): below the threshold
pKd (LRRC7, Q96NW7; [1]): below the threshold
pKd (MAGI2_3, Q86UL8; [1]): below the threshold
pKd (MAGI2_6, Q86UL8; [1]): below the threshold
pKd (MPDZ_10, O75970; [1]): below the threshold
pKd (NHERF4_2, Q86UT5; [1]): below the threshold
pKd (NOS1, P29475; [1]): below the threshold
pKd (PARD3B_1, Q8TEW8; [1]): 3.84
pKd (PCLO, Q9Y6V0; [1]): below the threshold
pKd (PDLIM1, O00151; [1]): below the threshold
pKd (SCRIB_2, Q14160; [1]): below the threshold
pKd (SCRIB_3, Q14160; [1]): below the threshold
pKd (SIPA1L2, Q9P2F8; [1]): below the threshold
pKd (TIAM2, Q8IVF5; [1]): below the threshold
pKd (TJP1_2, Q07157; [1]): below the threshold
Binder: LETREPTNTL [GRIP1, Q9Y3R0]

pKd (AHNAK1, Q09666; [2]): below the threshold
pKd (DFNB31_3, Q9P202; [2]): 4.25
pKd (DLG1_1, Q12959; [2]): 4.15
pKd (DLG2_2, Q15700; [2]): 4.37
pKd (DLG3_1, Q92796; [2]): below the threshold
pKd (DLG4_2, P78352; [2]): 4.58
pKd (GRID2IP_1, A4D2P6; [2]): below the threshold
pKd (GRIP1_4, Q9Y3R0; [2]): below the threshold
pKd (GRIP1_7, Q9Y3R0; [2]): below the threshold
pKd (HTRA1, Q92743; [2]): 5.03
pKd (Inadl_1, Q8NI35; [2]): 3.85
pKd (LAP2, Q96RT1; [2]): 3.93
pKd (LNX2_2, Q8N448; [2]): 5.03
pKd (LRRC7, Q96NW7; [2]): below the threshold
pKd (MAGI2_3, Q86UL8; [2]): 4.85
pKd (MAGI2_6, Q86UL8; [2]): 4.57
pKd (MPDZ_10, O75970; [2]): 4.18
pKd (NHERF4_2, Q86UT5; [2]): below the threshold
pKd (NOS1, P29475; [2]): 3.81
pKd (PARD3B_1, Q8TEW8; [2]): below the threshold
pKd (PCLO, Q9Y6V0; [2]): below the threshold
pKd (PDLIM1, O00151; [2]): below the threshold
pKd (SCRIB_2, Q14160; [2]): below the threshold
pKd (SCRIB_3, Q14160; [2]): 3.74
pKd (SIPA1L2, Q9P2F8; [2]): below the threshold
pKd (TIAM2, Q8IVF5; [2]): below the threshold
pKd (TJP1_2, Q07157; [2]): below the threshold
Binder: DEDQHTQITKV [PTEN_Ac, P60484]
